# Numbering of substitutions follows the chain as printed. Numbers in names are those of the source.
# T1: Epstein-Barr virus BHRF-1 protein (Epstein-Barr virus, UniProt P03182 1-191)
# T1 sequence: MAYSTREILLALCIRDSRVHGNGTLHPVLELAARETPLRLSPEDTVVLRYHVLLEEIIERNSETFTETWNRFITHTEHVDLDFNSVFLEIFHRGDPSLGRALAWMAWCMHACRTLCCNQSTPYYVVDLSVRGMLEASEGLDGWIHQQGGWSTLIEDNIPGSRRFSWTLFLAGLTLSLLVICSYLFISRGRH
# B1: murine BimL (wild-type) (other)
# chain: MAKQPSDVSSECDREGGQLQPAERPPQLRPGAPTSLQTEPQDRSPAPMSCDKSTQTPSPPCQAFNHYLSAMASIRQSQEEPEDLRPEIRIAQELRRIGDEFNETYTRRVFANDYREAEDHPQMVILQLLRFIFRLVWRRH
# notes: also called wild-type BimL; mBIM L
# B2: BimL mutant T54A (other)
# chain: B1 chain with T54A
# B3: BimL mutant D51G (other)
# chain: B1 chain with D51G
# notes: also called D51G mutant
# B4: BimL double mutant T54I/N65S (other)
# chain: B1 chain with T54I, N65S
# notes: also called T541/N65S; double mutant T541/N65S
# B5: BimL mutant S53P (other)
# chain: B1 chain with S53P
# B6: EE-tagged BimS (other)
# chain: EYMPMEMAKQPSDVSSECDREGGQLQPAERPPQLRPGAPTSLQTEPQASIRQSQEEPEDLRPEIRIAQELRRIGDEFNETYTRRVFANDYREAEDHPQMVILQLLRFIFRLVWRRH
# B7: EE-tagged BimL (Glu-Glu epitope-tagged mouse BimL) (other)
# chain: EYMPMEMAKQPSDVSSECDREGGQLQPAERPPQLRPGAPTSLQTEPQDRSPAPMSCDKSTQTPSPPCQAFNHYLSAMASIRQSQEEPEDLRPEIRIAQELRRIGDEFNETYTRRVFANDYREAEDHPQMVILQLLRFIFRLVWRRH
# notes: N-terminal EE tag from a pEF vector derivative; also called EE-BimL; EE BimL
# B8: EE-BimL ΔBH3 mutant (other)
# chain: EYMPMEMAKQPSDVSSECDREGGQLQPAERPPQLRPGAPTSLQTEPQDRSPAPMSCDKSTQTPSPPCQAFNHYLSAMASIRQSQEEPEDLRPEIRIAQEALFNETYTRRVFANDYREAEDHPQMVILQLLRFIFRLVWRRH
# notes: also called EE-Bim ΔBH3
# B9: EE-tagged BimEL (other)
# chain: EYMPMEMAKQPSDVSSECDREGGQLQPAERPPQLRPGAPTSLQTEPQGNPDGEGDRCPHGSPQGPLAPPASPGPFATRSPLFIFVRRSSLLSRSSSGYFSFDTDRSPAPMSCDKSTQTPSPPCQAFNHYLSAMASIRQSQEEPEDLRPEIRIAQELRRIGDEFNETYTRRVFANDYREAEDHPQMVILQLLRFIFRLVWRRH
# Tests used:
# [1] = molecular target: T2, human Bcl-2 (human, UniProt P10415 1-239); assay: yeast two-hybrid, beta-galactosidase activity with ONPG
# T2 construct: also called wt Bcl-2
# T2 sequence (P10415 whole entry): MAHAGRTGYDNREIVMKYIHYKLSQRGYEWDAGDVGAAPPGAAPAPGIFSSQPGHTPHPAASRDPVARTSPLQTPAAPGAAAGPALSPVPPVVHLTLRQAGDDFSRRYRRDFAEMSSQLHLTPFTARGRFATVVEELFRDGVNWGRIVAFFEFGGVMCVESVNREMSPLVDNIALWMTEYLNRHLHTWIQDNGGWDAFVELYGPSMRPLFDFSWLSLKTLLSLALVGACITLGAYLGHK
# [2] = molecular target: T3, dynein light chain (UniProt P63167 1-89, limits assumed); assay: yeast two-hybrid, beta-galactosidase activity with ONPG; reference wild-type BimL
# T3 construct: also called cytoplasmic dynein light chain
# T3 sequence (P63167 whole entry): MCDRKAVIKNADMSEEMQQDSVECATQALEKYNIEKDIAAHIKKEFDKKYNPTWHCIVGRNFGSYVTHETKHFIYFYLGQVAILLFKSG
# [3] = molecular target: T2, human Bcl-2; assay: immunoprecipitation with anti-human Bcl-2 from FDC-P1 cells, anti-EE immunoblot
# [4] = molecular target: T2, human Bcl-2; assay: immunoprecipitation and immunoblot from FDC-P1 cells (FIG. 8B)
# [5] = molecular target: T1, Epstein-Barr virus BHRF-1 protein; assay: immunoprecipitation from co-transfected 293T cells
# [6] = molecular target: T2, human Bcl-2; assay: immunoprecipitation and immunoblot from FDC-P1 cells
Binder,binding result [1],activity compared to wild-type BimL [2] [%],further results
B1,binds,,
B2,binds,< 0.1,
B3,binds,,
B4,binds,< 0.1,
B5,binds,< 0.1,
B6,,,binding result [3]: binds
B7,,,binding result [4]: binds; binding result [5]: no binding
B8,,,binding result [6]: no binding
B9,,,binding result [3]: binds

# Source: patent US20060183687A1 (WALTER AND ELIZA HALL INSTITUTE OF MEDICAL RESEARCH, published 2006)
